From the supplement of paper PMC7877785 come the findings set out here.

The data set in a line: self-splicing fitness, log relative to wild type (ln ratio); higher = more splicing; Tetrahymena group I intron in knt gene, E. coli kanamycin selection, DiMSum; sequences stand for … in CUCUCU…GGAGGGAAAAGUUAUCAGGCAUGCACCUGGUAGCUAGUCUUUAAACCAAUAGAUUGCAUCGGUUUAAAAGGCAAGACCGUCAAAUUGCGGGAAAGGGGUCAACAGCCGUUCAGUACCAAGUCUCAGGGGAAACUUUGAGAUGGCCUUGCAAAGGGUAUGGUAAUAAGCUGACGGACAUGGUCCUAACCACGCAGCCAAGUCCUAAGUCAACAGAUCUUCUGUUGAUAUGGAUGCAGUUCACAGACUAAAUGUCGGUCGGGGAAGAUGUAUUCUUCUCAUAAGAUAUAGUCGGACCUCUCCUUAAUGGGAGCUAGCGGAUGAAGUGAUGCAACACUGGAGCCGCUGGGAACUAAUUUGUAUGCGAAAGUAUAUUGAUUAGUUUUGGAGUACUCGUGGUCG
A digest of the protocol: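 Six replicate transformations of E. coli BL21(DE3) with a pET-22b(+) library were grown overnight at 37°C or 30°C. The library randomised all eight P1ex-region intron nucleotides, the intron lying in the knt kanamycin-resistance gene, and plates were LB agar with or without 25 μg/mL kanamycin plus 100 μg/mL carbenicillin, 50 μM IPTG and 0.2% rhamnose. Pooled colonies were amplicon-sequenced on an Illumina HiSeq 2500, and fitness is the DiMSum error-weighted combination of wild-type-normalised replicate fold changes, kanamycin versus none.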

± gives the uncertainty stated by the source.

In the case of GGUCAGCAAUAUUACGUAGU, the “self-splicing fitness (ln)” value reads like this: (30 °C) -0.367 ± 0.064; (37 °C) 0.693 ± 0.075.
Consider CAGCAGCAAUAUUACGGCUA, for which the “self-splicing fitness (ln)” value was -0.235 ± 0.088 (30 °C) and 0.311 ± 0.13 (37 °C).
For UUGCAGCAAUAUUACGACGG, the “self-splicing fitness (ln)” value is -0.213 ± 0.076 (30 °C) and 0.395 ± 0.11 (37 °C).
Take CCACAGCAAUAUUACGGGAA: the “self-splicing fitness (ln)” value (30 °C) is -3.4 ± 0.15 and the “self-splicing fitness (ln)” value (37 °C) was -3.01 ± 0.2.
In the case of GCGAAGCAAUAUUACGGGAC, the “self-splicing fitness (ln)” value by setting is: (30 °C) -1.66 ± 0.16; (37 °C) -2.2 ± 0.22.
Consider AGUCAGCAAUAUUACGCCUG, for which the “self-splicing fitness (ln)” value was -2.49 ± 0.16 (30 °C) and -0.867 ± 0.11 (37 °C).
With GUAGAGCAAUAUUACGUCAC, the “self-splicing fitness (ln)” value (30 °C) is -1.65 ± 0.1 and the “self-splicing fitness (ln)” value (37 °C) was -1.06 ± 0.12.
Turning to AAAAAGCAAUAUUACGGGCC, the “self-splicing fitness (ln)” value was -1.8 ± 0.28 (30 °C) and -1.17 ± 0.22 (37 °C).
In the case of GUGAAGCAAUAUUACGUCUG, the “self-splicing fitness (ln)” value reads like this: (30 °C) -1.29 ± 0.12; (37 °C) -0.0242 ± 0.2.
On to AUUUAGCAAUAUUACGGGGC, for which the “self-splicing fitness (ln)” value (30 °C) was -3.54 ± 0.41.
Take CGGAAGCAAUAUUACGUUUC: the “self-splicing fitness (ln)” value reads like this: (30 °C) -4.04 ± 0.29; (37 °C) -2.69 ± 0.23.
On to AUUAAGCAAUAUUACGCAUG, for which the “self-splicing fitness (ln)” value (30 °C) was -1.09 ± 0.08 and the “self-splicing fitness (ln)” value (37 °C) is -0.301 ± 0.11.
For UUGCAGCAAUAUUACGGAUC, the “self-splicing fitness (ln)” value is -3.22 ± 0.27 (30 °C) and -2.93 ± 0.37 (37 °C).
For GGUCAGCAAUAUUACGUUGA, in that order: -3.12 ± 0.27 and -1.76 ± 0.25.
For ACCCAGCAAUAUUACGGGCU, the “self-splicing fitness (ln)” value was -1.68 ± 0.07 (30 °C) and -0.729 ± 0.072 (37 °C).
Consider GCCCAGCAAUAUUACGUAGG, for which the “self-splicing fitness (ln)” value is -2.35 ± 0.24 (30 °C) and -2.15 ± 0.2 (37 °C).
UACUAGCAAUAUUACGCAGC: the “self-splicing fitness (ln)” value reads like this: (30 °C) -2.49 ± 0.39; (37 °C) -2.08 ± 0.39.
For AACGAGCAAUAUUACGGCAC the same measures were -2.99 ± 0.22 and -1.89 ± 0.29.
For AAUGAGCAAUAUUACGUCGU, in that order: -2.77 ± 0.082 and -1.18 ± 0.086.
GCGGAGCAAUAUUACGGAGA: the “self-splicing fitness (ln)” value by setting is: (30 °C) -2.07 ± 0.2; (37 °C) -1.71 ± 0.41.
As for GGUAAGCAAUAUUACGGGGC, the “self-splicing fitness (ln)” value is, setting by setting: (30 °C) -3.8 ± 0.32; (37 °C) -2.09 ± 0.31.
Consider AAGGAGCAAUAUUACGCAUC, for which the “self-splicing fitness (ln)” value reads like this: (30 °C) -5.17 ± 0.36; (37 °C) -2.52 ± 0.19.
AGGUAGCAAUAUUACGGCCA: the “self-splicing fitness (ln)” value reads like this: (30 °C) 0.159 ± 0.018; (37 °C) 0.165 ± 0.037.
Take UAUUAGCAAUAUUACGUGGC: where the note is “37 °C”, the “self-splicing fitness (ln)” value is -1.84 ± 0.39.
For the sequence AAGUAGCAAUAUUACGCUCU, the “self-splicing fitness (ln)” value runs as follows: (30 °C) -1.25 ± 0.18; (37 °C) -1.29 ± 0.17.
For CGGGAGCAAUAUUACGUAGA, the “self-splicing fitness (ln)” value (30 °C) was -3.97 ± 0.47 and the “self-splicing fitness (ln)” value (37 °C) is -1.96 ± 0.26.
With CUAAAGCAAUAUUACGAUAC, where the note is “37 °C”, the “self-splicing fitness (ln)” value is -2.32 ± 0.31.
As for AGCAAGCAAUAUUACGCUAU, the “self-splicing fitness (ln)” value (30 °C) was -2.4 ± 0.1 and the “self-splicing fitness (ln)” value (37 °C) was -2.25 ± 0.15.
As for GAUAAGCAAUAUUACGGGGC, the “self-splicing fitness (ln)” value by setting is: (30 °C) -2.96 ± 0.25; (37 °C) -1.62 ± 0.18.
Take CCAUAGCAAUAUUACGGUUG: the “self-splicing fitness (ln)” value (30 °C) was -1.43 ± 0.082 and the “self-splicing fitness (ln)” value (37 °C) is -0.827 ± 0.12.
Consider GCGGAGCAAUAUUACGCAUC, for which the “self-splicing fitness (ln)” value was -4.01 ± 0.27 (30 °C) and -1.81 ± 0.35 (37 °C).
For GGCGAGCAAUAUUACGGCAA, in that order: -0.896 ± 0.19 and -0.442 ± 0.2.
On to GUUAAGCAAUAUUACGCUCA, for which the “self-splicing fitness (ln)” value (30 °C) is -0.759 ± 0.1 and the “self-splicing fitness (ln)” value (37 °C) came out at 0.0333 ± 0.13.
As for CCUAAGCAAUAUUACGGUAC, the “self-splicing fitness (ln)” value was -2.81 ± 0.22 (30 °C) and -2.17 ± 0.34 (37 °C).
For CUGUAGCAAUAUUACGCGCA, the “self-splicing fitness (ln)” value reads like this: (30 °C) -2.23 ± 0.39; (37 °C) -2.52 ± 0.41.
For UAAAAGCAAUAUUACGUAGA the same measures were -2.7 ± 0.12 and -1.45 ± 0.14.
In the case of UAGAAGCAAUAUUACGUUUG, the “self-splicing fitness (ln)” value (30 °C) was -2.32 ± 0.1 and the “self-splicing fitness (ln)” value (37 °C) is -0.879 ± 0.12.
For GAUUAGCAAUAUUACGUGAC, in that order: -2.89 ± 0.12 and -0.588 ± 0.094.
For AACUAGCAAUAUUACGGUCA, the “self-splicing fitness (ln)” value is, setting by setting: (30 °C) -0.313 ± 0.074; (37 °C) 0.442 ± 0.093.
